The values below come from IntAct's records for PubMed 28533443.

To fix the notation:
B1: Complement factor H-related protein 1 (Homo sapiens), Q03591 (parent)
chain: MWLLVSVILISRISSVGGEATFCDFPKINHGILYDEEKYKPFSQVPTGEVFYYSCEYNFVSPSKSFWTRITCTEEGWSPTPKCLRLCFFPFVENGHSESSGQTHLEGDTVQIICNTGYRLQNNENNISCVERGWSTPPKCRSTDTSCVNPPTVQNAHILSRQMSKYPSGERVRYECRSPYEMFGDEEVMCLNGNWTEPPQCKDSTGKCGPPPPIDNGDITSFPLSVYAPASSVEYQCQNLYQLEGNKRITCRNGQWSEPPKCLHPCVISREIMENYNIALRWTAKQKLYLRTGESAEFVCKRGYRLSSRSHTLRTTCWDGKLEYPTCAKR
partner: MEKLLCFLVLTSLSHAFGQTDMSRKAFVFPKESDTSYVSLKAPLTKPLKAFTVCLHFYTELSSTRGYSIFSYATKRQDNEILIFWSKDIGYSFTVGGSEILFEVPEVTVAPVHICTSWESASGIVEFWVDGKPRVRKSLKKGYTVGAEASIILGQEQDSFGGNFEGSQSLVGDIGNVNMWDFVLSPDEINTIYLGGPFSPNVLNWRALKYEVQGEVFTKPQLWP

Variants of B1 are the subject of the experiment. The settings on record: with crp_human CRP.
Regarding MWLLVSVILISRISSVGGEATFCDFPKINHGILYDEEKYKPFSQVPTGEVFYYSCEYNFVSPSKSFWTRITCTEEGWSPTPKCLRLCFFPFVENGHSESSGQTHLEGDTVQIICNTGYRLQNNENNISCVERGWSTPPKCRSTDTSCVNPPTVQNAYIVSRQMSKYPSGERVRYQCRSPYEMFGDEEVMCLNGNWTEPPQCKDSTGKCGPPPPIDNGDITSFPLSVYAPASSVEYQCQNLYQLEGNKRITCRNGQWSEPPKCLHPCVISREIMENYNIALRWTAKQKLYLRTGESAEFVCKRGYRLSSRSHTLRTTCWDGKLEYPTCAKR [H157Y;L159V;E175Q], the “effect of a mutation on the interaction” value is on record as “with no effect”.
